Laboratory results as given in patent US7105166 (Bristol-Myers Squibb, dated 2006).

B1: B7 antigen (B7-1, CD80) expressed on cells (ligand, human, UniProt P33681 35-288, looked up)
chain: VIHVTKEVKEVATLSCGHNVSVEELAQTRIYWQKEKKMVLTMMSGDMNIWPEYKNRTIFDITNNLSIVILALRPSDEGTYECVVLKYEKDAFKREHLAEVTLSVKADFPTPSISDFEIPTSNIRRIICSTSGGFPEPHLSWLENGEELNAINTTVSQDPETELYAVSSKLDFNMTTNHSFMCLIKYGHLRVNQTFNWNTTKQEHFPDNLLPSWAITLISVNGIFVICCLTYCFAPRCRERRRNERLRRESVRPV
notes: whole, on cells; Stably transfected CHO cells; in the MLR and IgM assays the B7 antigen of the stimulating B cells; also called B7^+ CHO cells; B7-1 positive CHO cells

Columns and labels:
[1] = molecular target: B1; experiment: B7-1+ CHO cell enzyme immunoassay; binding activity relative to CTLA4Ig, from the concentrations giving the same A450
CD5Ig [2] = molecular target: T1, CD5Ig (human, UniProt P06127 25-371; P01857 99-330 = IgG part); experiment: indirect immunofluorescence, FACS, FITC goat anti-human Ig second step
T1 construct: range 1-347;domain: hinge, CH2 and CH3 regions; Control fusion protein; also called control CD5Ig fusion protein
T1 sequence (P06127 other isoform, or with tags, fused parts or gaps limits assumed): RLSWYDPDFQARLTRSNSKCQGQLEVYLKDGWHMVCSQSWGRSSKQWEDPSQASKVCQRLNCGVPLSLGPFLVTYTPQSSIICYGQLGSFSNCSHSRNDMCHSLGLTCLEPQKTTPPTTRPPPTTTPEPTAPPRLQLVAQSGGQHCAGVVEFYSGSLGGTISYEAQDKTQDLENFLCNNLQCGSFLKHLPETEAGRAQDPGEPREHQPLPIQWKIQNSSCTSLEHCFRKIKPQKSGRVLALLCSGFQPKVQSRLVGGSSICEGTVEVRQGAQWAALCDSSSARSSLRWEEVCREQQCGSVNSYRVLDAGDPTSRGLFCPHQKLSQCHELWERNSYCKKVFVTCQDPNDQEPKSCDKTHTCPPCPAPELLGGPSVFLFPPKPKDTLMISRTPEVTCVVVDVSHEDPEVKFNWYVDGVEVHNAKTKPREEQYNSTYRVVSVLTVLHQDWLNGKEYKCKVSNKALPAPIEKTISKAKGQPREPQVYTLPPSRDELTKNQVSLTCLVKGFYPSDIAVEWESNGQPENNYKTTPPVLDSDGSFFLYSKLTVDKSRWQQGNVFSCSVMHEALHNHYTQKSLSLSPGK
Experimental: Prior to staining, COS or CHO cells were removed from their culture vessels by incubation in PBS containing 10 mM EDTA. Cells were first incubated with mAbs or Ig fusion proteins at 10 micro grams/ml in DMEM containing 10% FBS for 1–2 hr at 4 degrees C. Cells were then washed, and incubated for an additional 0.5–2 hrs at 4 degrees C. with FITC-conjugated goat anti-mouse immunoglobulin or with FITC-conjugated goat anti-human IgCγ serum (both from Tago, Burlingame, Calif.). When binding of both mAbs and Ig fusion proteins were measured in the same experiment, FITC-conjugated anti-mouse and anti-human second step reagents were mixed together before use. Fluorescence on a total of 10,000 cells was then analyzed by FACS^R.
Binding was detected by FACS^R following addition of FITC-conjugated goat anti-human Ig second step reagents. A total of 10,000 stained cells were analyzed by FACS^R.

CD5Ig [3] = molecular target: T1, CD5Ig; experiment: indirect immunofluorescence, FACS, transfected COS cells, FITC anti-mouse and anti-human Ig second step
Experimental: Immunostaining and FACS^R Analysis. Prior to staining, COS or CHO cells were removed from their culture vessels by incubation in PBS containing 10 mM EDTA. Cells were first incubated with mAbs or Ig fusion proteins at 10 micro grams/ml in DMEM containing 10% FBS for 1–2 hr at 4 degrees C. Cells were then washed, and incubated for an additional 0.5–2 hrs at 4 degrees C. with FITC-conjugated goat anti-mouse immunoglobulin or with FITC-conjugated goat anti-human IgCγ serum (both from Tago, Burlingame, Calif.). When binding of both mAbs and Ig fusion proteins were measured in the same experiment, FITC-conjugated anti-mouse and anti-human second step reagents were mixed together before use. Fluorescence on a total of 10,000 cells was then analyzed by FACS^R.
Cells were then washed and binding was detected by a mixture of FITC-conjugated goat anti-mouse Ig and FITC-conjugated goat anti-human Ig second step reagents. Transfected cells were tested for expression of the appropriate cell surface markers by indirect immunostaining and fluorescence was measured using FACS^R analysis as described above.

[4] = molecular target: B1; experiment: enzyme immunoassay on fixed B7-1+ CHO cells

Binder	% B7 binding activity [1]	other results
CTLA4/CD28Ig hybrid fusion protein HS3 (Fc fusion, not shown: a dimerising Fc or GST, mature numbering, not counted on the entries) MHVAQPAVVLASSRGIASFVCEYASPGKATEVRVTVLRQADSQVTEVCAATYMMGNELTFLDDSICTGTSSGNQVNLTIQGLRAMDTGLYICKVEVMYPPPYLDNEKSNGTIIHVKGKHLCPS	< 0.1%	
B1		binding result (CD5Ig [2]): no binding (tested: 10 µg/ml (from the text))
CD7 expressed on transfected COS cells (receptor, UniProt P09564 26-240, looked up, whole, on cells; Control transfectant; also called CD7-transfected COS cells) AQEVQQSPHCTTVPVGASVNITCSTSGGLRGIYLRQLGPQPQDIIYYEDGVVPTTDRRFRGRIDFSGSQDNLTITMHRLQLSDTGTYTCQAITEVNVYGSGTLVLVTEEQSQGWHRCSDAPPRASALPAPPTGSALPDPQTASALPDPPAASALPAALAVISFLLGLGLGVACVLARTQIKKLCSWRDKNSAACVVYEDMSHSRCNTLSSPNQYQ		binding result (CD5Ig [3]): no binding (tested: 10 µg/ml (from the text))
CTLA4/CD28Ig hybrid fusion protein HS4-A (Fc fusion, not shown: a dimerising Fc or GST, mature numbering, not counted on the entries) NKILVKQSPMLVAYDNAYNLSCKYSYNLFSREFRASLHKGLDSAVEVCVVYGNYSQQLQVYSKTGFNCDGKLGNESVTFYLQNLYVNQTDIYFCKIELMYPPPYYLGIGNGTQIHVKGKHLCPS	2%	% of wild type binding [4]: ~2%
CTLA4/CD28Ig hybrid fusion protein HS1 (Fc fusion, not shown: a dimerising Fc or GST, mature numbering, not counted on the entries) NKILVKQSPMLVAYDNAYNLSCKYASPGKATEVRVTVLRQADSQVTEVCAATYMMGNELTFLDDSICTGTSSGNQVNLTIQGLRAMDTGLYICKVEVMYPPPYLDNEKSNGTIIHVKGKHLCPS	< 0.1%	
CTLA4/CD28Ig hybrid fusion protein HS2 (Fc fusion, not shown: a dimerising Fc or GST, mature numbering, not counted on the entries) MHVAQPAVVLASSRGIASFVCKYSYNLFSREFRASLHKGLDSAVEVCVVYGNYSQQLQVYSKTGFNCDGKLGNESVTFYLQNLYVNQTDIYFCKIELMYPPPYYLGIGNGTQIYVIDPEPCPDSD	27%	
CTLA4/CD28Ig hybrid fusion protein HS6 (Fc fusion, not shown: a dimerising Fc or GST, mature numbering, not counted on the entries) MHVAQPAVVLASSRGIASFVCEYSYNLFSREVRVTVLRQADSQVTEVCAATYMMGNELTFLDDSICTGTSSGNQVNLTIQGLRAMDTGLYICKVELMYPPPYYLGIGNGTQIYVIDPEPCPDSD	20%	
CTLA4/CD28Ig hybrid fusion protein HS4 (Fc fusion, not shown: a dimerising Fc or GST, mature numbering, not counted on the entries) NKILVKQSPMLVAYDNAYNLSCKYSYNLFSREFRASLHKGLDSAVEVCVVYGNYSQQLQVYSKTGFNCDGKLGNESVTFYLQNLYVNQTDIYFCKIELMYPPPYYLGIGNGTQIYVIDPEPCPDSD	16%	fold less binding than wild type CTLA4Ig [4]: ~5 fold; increase in binding relative to CD28Ig [4]: ~2.5 orders of magnitude
